Where a chain is given by its changes, count along the chain named.
B1: TR01H015-E22Hh/none-Hi-Kn010G3/TR01L001-k0 (antibody, human IgG1, kappa, L234A L235A, N297A)
heavy: QVQLVESGGGLVQPGRSLRLSCAASGFTFSNAWMHWVRQAPGKGLEWVAQIKGKSNNYATYYAESVKGRFTISRADSKNSIYLQMNSLKTEDTAVYYCRYVHYSASYGVDIWGQGTTVTVSSASTKGPSVFPLAPSSKSTSGGTAALGCLVKDYFPEPVTVSWNSGALTSGVHTFPAVLQSSGLYSLSSVVTVPSSSLGTQTYICNVNHKPSNTKVDKKVEPKSCDKTHTCPPCPAPEAAGGPSVFLFPPKPKDTLMISRTPEVTCVVVDVSHEDPEVKFNWYVDGVEVHNAKTKPREEQYASTYRVVSVLTVLHQDWLNGKEYKCKVSNKALPAPIEKTISKAKGQPREPQVYTLPPSRCELTKNQVSLSCAVKGFYPSDIAVEWESNGQPENNYKTTPPVLDSDGSFFLVSKLTVDKSRWQQGNVFSCSVMHEALHNHYTQKSLSLSPDYKDDDDK
chain: EPKSSDKTHTCPPCPAPELLGGPSVFLFPPKPKDTLMISRTPEVTCVVVDVSHEDPEVKFNWYVDGVEVHNAKTKPREEQYNSTYRVVSVLTVLHQDWLNGKEYKCKVSNKALPAPIEKTISKAKGQPREPQVCTLPPSRDELTKNQVSLWCLVKGFYPSDIAVEWESNGQPENNYKTTPPVLDSDGSFFLYSKLTVDKSRWQQGNVFSCSVMHEALHNRYTQKSLSLSP
light: DIVMTQSPLSLPVTPGEPASISCQASESLVHSNRNTYLHWYQQKPGQAPRLLIYKVSNRFSGVPDRFSGSGSGTDFTLKISRVEAEDVGVYYCGQGTQVPYTFGQGTKLEIKRTVAAPSVFIFPPSDEQLKSGTASVVCLLNNFYPREAKVQWKVDNALQSGNSQESVTEQDSKDSTYSLSSTLTLSKADYEKHKVYACEVTHQGLSSPVTKSFNRGEC
notes: single-arm
B2: TR01H030-E22Hh/none-Hi-Kn010G3/L0000-k0 (antibody, human IgG1, kappa, L234A L235A, N297A)
heavy: B1 heavy with L11V
chain: B1 chain
light: B1 light with Q24R, A25S, E27Q
notes: single-arm
B3: TR01H040-E22Hh/none-Hi-Kn010G3/L0205-k0 (antibody, human IgG1, kappa, L234A L235A, N297A)
heavy: B1 heavy with G53D, N56Q, I111A
chain: B1 chain
light: B1 light with Q24R, A25S, E27Q, L29P, S61W
notes: single-arm
B4: TR01H040-E22Hh/none-Hi-Kn010G3/L0203-k0 (antibody, human IgG1, kappa, L234A L235A, N297A)
heavy: B1 heavy with G53D, N56Q, I111A
chain: B1 chain
light: B1 light with Q24R, A25S, E27Q, L29P, L38I
notes: single-arm
B5: TR01H029-E22Hh/none-Hi-Kn010G3/L0000-k0 (antibody, human IgG1, kappa, L234A L235A, N297A)
heavy: B1 heavy with A23S
chain: B1 chain
light: B1 light with Q24R, A25S, E27Q
notes: single-arm
B6: TR01H015-E22Hh/none-Hi-Kn010G3/TR01L003-k0 (antibody, human IgG1, kappa, L234A L235A, N297A)
heavy: B1 heavy
chain: B1 chain
light: B1 light with Q24R, A25S, E27Q, L109V, K112E
notes: single-arm
B7: TR01H040-E22Hh/none-Hi-Kn010G3/L0208-k0 (antibody, human IgG1, kappa, L234A L235A, N297A)
heavy: B1 heavy with G53D, N56Q, I111A
chain: B1 chain
light: B1 light with Q24R, A25S, E27Q, L29P, S61W, G94Y
notes: single-arm
B8: TR01H020-E22Hh/none-Hi-Kn010G3/L0000-k0 (antibody, human IgG1, kappa, L234A L235A, N297A)
heavy: B1 heavy with E64P
chain: B1 chain
light: B1 light with Q24R, A25S, E27Q
notes: single-arm
B9: TR01H040-E22Hh/none-Hi-Kn010G3/L0209-k0 (antibody, human IgG1, kappa, L234A L235A, N297A)
heavy: B1 heavy with G53D, N56Q, I111A
chain: B1 chain
light: B1 light with Q24R, A25S, E27Q, L29P, L38I, G94Y
notes: single-arm
B10: TR01H040-E22Hh/none-Hi-Kn010G3/L0204-k0 (antibody, human IgG1, kappa, L234A L235A, N297A)
heavy: B1 heavy with G53D, N56Q, I111A
chain: B1 chain
light: B1 light with Q24R, A25S, E27Q, L29P, S61R
notes: single-arm
B11: TR01H018-E22Hh/none-Hi-Kn010G3/L0000-k0 (antibody, human IgG1, kappa, L234A L235A, N297A)
heavy: B1 heavy with R16G
chain: B1 chain
light: B1 light with Q24R, A25S, E27Q
notes: single-arm
B12: TR01H040-E22Hh/none-Hi-Kn010G3/L0212-k0 (antibody, human IgG1, kappa, L234A L235A, N297A)
heavy: B1 heavy with G53D, N56Q, I111A
chain: B1 chain
light: B1 light with Q24R, A25P, E27Q, L29P, G94Y
notes: single-arm
B13: TR01H040-E22Hh/none-Hi-Kn010G3/L0201-k0 (antibody, human IgG1, kappa, L234A L235A, N297A)
heavy: B1 heavy with G53D, N56Q, I111A
chain: B1 chain
light: B1 light with Q24R, A25S, E27Q, S28P, L29P
notes: single-arm
B14: TR01H015-E22Hh/none-Hi-Kn010G3/TR01L005-k0 (antibody, human IgG1, kappa, L234A L235A, N297A)
heavy: B1 heavy
chain: B1 chain
light: B1 light with Q24R, A25S, E27Q, Q42L, A48S, R50Q, L109V, K112E
notes: single-arm
B15: TR01H040-E22Hh/none-Hi-Kn010G3/L0011-k0 (antibody, human IgG1, kappa, L234A L235A, N297A)
heavy: B1 heavy with G53D, N56Q, I111A
chain: B1 chain
light: B1 light with Q24R, A25S, E27Q, S28P
notes: single-arm
B16: TR01H040-E22Hh/none-Hi-Kn010G3/L0206-k0 (antibody, human IgG1, kappa, L234A L235A, N297A)
heavy: B1 heavy with G53D, N56Q, I111A
chain: B1 chain
light: B1 light with Q24R, A25S, E27Q, L29P, G94Y
notes: single-arm
B17: TR01H017-E22Hh/none-Hi-Kn010G3/L0000-k0 (antibody, human IgG1, kappa, L234A L235A, N297A)
heavy: B1 heavy with R16G, G53A, S104G, S106Y
chain: B1 chain
light: B1 light with Q24R, A25S, E27Q
notes: single-arm
B18: TR01H040-E22Hh/none-Hi-Kn010G3/L0202-k0 (antibody, human IgG1, kappa, L234A L235A, N297A)
heavy: B1 heavy with G53D, N56Q, I111A
chain: B1 chain
light: B1 light with Q24R, A25S, E27Q, L29P, N35W
notes: single-arm
B19: TR01H019-E22Hh/none-Hi-Kn010G3/L0000-k0 (antibody, human IgG1, kappa, L234A L235A, N297A)
heavy: B1 heavy with N56Q
chain: B1 chain
light: B1 light with Q24R, A25S, E27Q
notes: single-arm
B20: TR01H040-E22Hh/none-Hi-Kn010G3/L0210-k0 (antibody, human IgG1, kappa, L234A L235A, N297A)
heavy: B1 heavy with G53D, N56Q, I111A
chain: B1 chain
light: B1 light with Q24R, A25S, E27Q, L29P, N35W, G94Y
notes: single-arm
B21: TR01H037-E22Hh/none-Hi-Kn010G3/L0000-k0 (antibody, human IgG1, kappa, L234A L235A, N297A)
heavy: B1 heavy with H35P
chain: B1 chain
light: B1 light with Q24R, A25S, E27Q
notes: single-arm
B22: TR01H040-E22Hh/none-Hi-Kn010G3/L0200-k0 (antibody, human IgG1, kappa, L234A L235A, N297A)
heavy: B1 heavy with G53D, N56Q, I111A
chain: B1 chain
light: B1 light with Q24R, A25P, E27Q, L29P
notes: single-arm
B23: TR01H032-E22Hh/none-Hi-Kn010G3/L0000-k0 (antibody, human IgG1, kappa, L234A L235A, N297A)
heavy: B1 heavy with G53S, N56Q, I111A
chain: B1 chain
light: B1 light with Q24R, A25S, E27Q
notes: single-arm
B24: TR01H039-E22Hh/none-Hi-Kn010G3/L0000-k0 (antibody, human IgG1, kappa, L234A L235A, N297A)
heavy: B1 heavy with G53D, N56Q
chain: B1 chain
light: B1 light with Q24R, A25S, E27Q
notes: single-arm
B25: TR01H028-E22Hh/none-Hi-Kn010G3/L0000-k0 (antibody, human IgG1, kappa, L234A L235A, N297A)
heavy: B1 heavy with L11V, R16G, G53S, N56Q
chain: B1 chain
light: B1 light with Q24R, A25S, E27Q
notes: single-arm
B26: TR01H040-E22Hh/none-Hi-Kn010G3/L0207-k0 (antibody, human IgG1, kappa, L234A L235A, N297A)
heavy: B1 heavy with G53D, N56Q, I111A
chain: B1 chain
light: B1 light with Q24R, A25S, E27Q, L29P, S61R, G94Y
notes: single-arm
B27: TR01H027-E22Hh/none-Hi-Kn010G3/L0000-k0 (antibody, human IgG1, kappa, L234A L235A, N297A)
heavy: B1 heavy with R16G, G53S, N56Q, I111A
chain: B1 chain
light: B1 light with Q24R, A25S, E27Q
notes: single-arm
B28: TR01H025-E22Hh/none-Hi-Kn010G3/L0000-k0 (antibody, human IgG1, kappa, L234A L235A, N297A)
heavy: B1 heavy with G53S, N56Q
chain: B1 chain
light: B1 light with Q24R, A25S, E27Q
notes: single-arm
B29: TR01H033-E22Hh/none-Hi-Kn010G3/L0000-k0 (antibody, human IgG1, kappa, L234A L235A, N297A)
heavy: B1 heavy with G53S, N56Q, I111Y
chain: B1 chain
light: B1 light with Q24R, A25S, E27Q
notes: single-arm
B30: TR01H038-E22Hh/none-Hi-Kn010G3/L0000-k0 (antibody, human IgG1, kappa, L234A L235A, N297A)
heavy: B1 heavy with G53D
chain: B1 chain
light: B1 light with Q24R, A25S, E27Q
notes: single-arm
B31: TR01H040-E22Hh/none-Hi-Kn010G3/L0211-k0 (antibody, human IgG1, kappa, L234A L235A, N297A)
heavy: B1 heavy with G53D, N56Q, I111A
chain: B1 chain
light: B1 light with Q24R, A25S, E27Q, S28P, L29P, G94Y
notes: single-arm
B32: TR01H040-E22Hh/none-Hi-Kn010G3/L0214-k0 (antibody, human IgG1, kappa, L234A L235A, N297A)
heavy: B1 heavy with G53D, N56Q, I111A
chain: B1 chain
light: B1 light with Q24R, A25S, E27Q, S28P, L29P, S61R
notes: single-arm
B33: TR01H026-E22Hh/none-Hi-Kn010G3/L0000-k0 (antibody, human IgG1, kappa, L234A L235A, N297A)
heavy: B1 heavy with R16G, G53S, N56Q
chain: B1 chain
light: B1 light with Q24R, A25S, E27Q
notes: single-arm
B34: TR01H040-E22Hh/none-Hi-Kn010G3/L0213-k0 (antibody, human IgG1, kappa, L234A L235A, N297A)
heavy: B1 heavy with G53D, N56Q, I111A
chain: B1 chain
light: B1 light with Q24R, A25S, E27Q, L29P, L38I, S61R
notes: single-arm
B35: TR01H036-E22Hh/none-Hi-Kn010G3/L0000-k0 (antibody, human IgG1, kappa, L234A L235A, N297A)
heavy: B1 heavy with I111Y
chain: B1 chain
light: B1 light with Q24R, A25S, E27Q
notes: single-arm
B36: TR01H016-E22Hh/none-Hi-Kn010G3/L0000-k0 (antibody, human IgG1, kappa, L234A L235A, N297A)
heavy: B1 heavy with A105Y
chain: B1 chain
light: B1 light with Q24R, A25S, E27Q
notes: single-arm

These binders were tested against T1, soluble human CD3ε chain (human, UniProt P07766 23-126, limits assumed) (assay: SPR (Biacore)).
T1 construct: the text says soluble human CD3ε chain; also called human CD3 epsilon chain
T1 sequence (P07766 23-126 limits assumed): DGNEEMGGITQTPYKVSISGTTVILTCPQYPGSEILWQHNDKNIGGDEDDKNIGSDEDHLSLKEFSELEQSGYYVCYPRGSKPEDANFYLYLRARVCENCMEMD

Kd [nM] | Binder
65.6 | B1
65.4 | B2
34.2 | B3
32.4 | B4
67 | B5
63.4 | B6
4.16 | B7
64.8 | B8
4.25 | B9
22.1 | B10
69.3 | B11
2.17 | B12
28.1 | B13
65.3 | B14
34.8 | B15
2.9 | B16
35 | B17
61.9 | B18

Kd [nM] | Binder
68.5 | B19
5.06 | B20
6.93 | B21
28.7 | B22
57.3 | B23
26.1 | B24
48 | B25
2.6 | B26
69.5 | B27
38.6 | B28
48.8 | B29
12.4 | B30
3.22 | B31
20.2 | B32
51.2 | B33
20.1 | B34
65 | B35
36.9 | B36

— patent US20210388110A1 (published 2021)
